Earlier results as cited in publication PMC4495883.
pKd: −log10 of the molar value.

Biological target: insulin-degrading enzyme (112 kDa protein) (Rattus norvegicus) (UniProt P35559)
Assay: cross-linking

Sequence of UniProt P35559 (P35559 whole entry): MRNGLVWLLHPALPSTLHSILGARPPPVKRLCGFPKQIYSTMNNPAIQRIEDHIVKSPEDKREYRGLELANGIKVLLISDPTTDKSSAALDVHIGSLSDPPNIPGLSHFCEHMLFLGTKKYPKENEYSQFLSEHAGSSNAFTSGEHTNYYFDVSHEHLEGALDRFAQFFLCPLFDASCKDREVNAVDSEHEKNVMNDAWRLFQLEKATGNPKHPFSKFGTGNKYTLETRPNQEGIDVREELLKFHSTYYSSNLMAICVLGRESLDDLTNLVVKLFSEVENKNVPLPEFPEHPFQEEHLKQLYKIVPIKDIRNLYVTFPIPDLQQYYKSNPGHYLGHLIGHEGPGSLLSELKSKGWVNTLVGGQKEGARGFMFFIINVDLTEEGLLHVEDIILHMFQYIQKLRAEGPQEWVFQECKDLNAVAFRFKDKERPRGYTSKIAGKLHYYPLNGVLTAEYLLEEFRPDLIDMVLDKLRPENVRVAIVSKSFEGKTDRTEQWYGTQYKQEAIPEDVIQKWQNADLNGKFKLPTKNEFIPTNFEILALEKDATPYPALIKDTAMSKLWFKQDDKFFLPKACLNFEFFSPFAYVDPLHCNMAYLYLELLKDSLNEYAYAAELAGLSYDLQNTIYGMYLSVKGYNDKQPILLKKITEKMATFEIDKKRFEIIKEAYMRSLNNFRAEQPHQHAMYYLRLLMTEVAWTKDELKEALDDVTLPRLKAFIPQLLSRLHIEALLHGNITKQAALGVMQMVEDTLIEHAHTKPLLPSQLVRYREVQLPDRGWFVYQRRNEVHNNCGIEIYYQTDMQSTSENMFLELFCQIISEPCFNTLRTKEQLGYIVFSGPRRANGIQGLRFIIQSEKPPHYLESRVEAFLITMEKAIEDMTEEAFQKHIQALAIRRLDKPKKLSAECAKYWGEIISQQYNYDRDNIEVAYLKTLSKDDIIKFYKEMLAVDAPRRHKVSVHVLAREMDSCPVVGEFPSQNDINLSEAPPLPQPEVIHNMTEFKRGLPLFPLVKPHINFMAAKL

pKd: 7.22
Substance: ANP (from UniProt P01161)
